Assay results as given in patent US20250011430A1.

Biological target: human B7H3 ECD-His (human) (UniProt Q5ZPR3)
Assay: ForteBio BLI, antibody on AHQ sensor, 60 nM antigen, 1:1 model

- Kd: 0.773 nM
Substance: Enoblituzumab (antibody)
